Variants at the floor of the assay were thinned out.

This note sets out measurements from the RNAGym collection of RNA variant scans (doi:10.1073/pnas.2313332121).

B1: TPR 5TU (parent)
chain: GGAUCUUCUCGAUCUAACAAAAAAGACAAAUCUGCCACAAAGCUUGAGAGCAUCUUCGGAUGCAGAGGCGGCAGCCUUCGGUGGCGCGAUAGCGCCAACGUUCUCAACUAUGACACGCAAAACGCGUGCUCCGUUGAAUGGAGUUUAUCAUG

The variants in the series derive from B1. As to the kind of experiment: polymerase ribozyme fitness, log enrichment relative to wild type (log ratio); higher = more active; in vitro selection for triplet polymerase activity. An outline of the steps: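 To select mutant libraries of each subunit of a heterodimeric triplet polymerase ribozyme, built by PCR and transcribed, each was annealed with a biotinylated primer, partner subunit and triplets, then incubated frozen at −7 °C. Extended constructs were gel-excised, captured on streptavidin beads and amplified by RT-PCR, in one round carried out in triplicate. Illumina sequencing of input and output libraries kept genotypes with ≥10 input reads and ≥1 read per output. Fitness is the base-2 logarithm of genotype enrichment relative to wild-type enrichment, from inverse-variance-weighted replicate averages.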
Regarding GGAUCUUCUCGAUCUAACAAAAAAGACAAAUCUGCCACAAAGCUUGAGAGCAUCUUCGGAUGCAGAGGCGGCAGCCUUCGGUGACGCGGUAGCGCCAGCGUUCUCAACUAUGAUACGCAAAACGCGUGCUCCGUUGAAUGGAGUUUAUCAUG [G84A A89G A98G C114U], the “polymerase ribozyme fitness (log ratio)” value was -2.55. The same measure for GGAUCUUCUCGAUCUAACAAAAAAGACAAAUCUGCCACAAAGCUUGAGAGCAUCUUCGGAUGCAGAGGCGGCAGCCUUCGGUUGCGCGAUAGCGCCAACGUUCCCAACUAUGACACGCAAAACGCGUGCUCCGUUGAAUGGAGUUUAUCAUG [G83U U104C]: -0.855; for GGAUCUUCUCGAUCUAACAAAAAAGACAAAUCUGCCACAAAGCUUGAGAGCAUCUUCGGAUGCAGAGGCGGCAGCCUUCGGUGACGCGAUAGCGCCAACGUUUUCAACUAUGACACGCAAAACGCGUGCUCCGUUGAAUGGAGUUUAUCAUG [G84A C103U]: -2.51. Next, GGAUCUUCUCGAUCUAACAAAAAAGACAAAUCUGCCACAAAGCUUGAGAGCAUCUUCGGAUGCAGAGGCGGCAGCCUUCGGUGACGCGAUAGCGCCAACGUUGUCAACUAUGACACGCAAAACGCGUGCUCCGUUGAAUGGAGUUUAUCAUG [G84A C103G]: -2.32. The same measure for GGAUCUUCUCGAUCUAACAAAAAAGACAAAUCUGCCACAAAGCUUGAGAGCAUCUUCGGAUGCAGAGGCGGCAGCCUUCGGUGACGCGAUAGGGCCAACGUUCUCAACUAUGACACGCAAAACGCGUGCUCCGUUGAAUGGAGUUUAUCAUG [G84A C93G]: -3.77; for GGAUCUUCUCGAUCUAACAAAAAAGACAAAUCUGCCACAAAGCUUGAGAGCAUCUUCGGAUGCAGAGGCGGCAGCCUUCGGUUGCGCGAUAGCGCCAACGUUCUCAACUAUGACACGCAAAACGCGUCCUCCGUUGAAUGGAGUUUAUCAUG [G83U G128C]: -3.55. On to GGAUCUUCUCGAUCUAACAAAAAAGACAAAUCUGCCACAAAGCUUGAGAGCAUCUUCGGAUGCAGAGGCGGCAGCCUUCGGUGACGUGAUAGCGGCAACGUUCUCAACUAUGACACGCAAAACGCGUGCUCCGUUGAAUGGCGUUUAUCAUG [G84A C87U C95G A142C], for which the “polymerase ribozyme fitness (log ratio)” value is -2.26. For GGAUCUUCUCGAUCUAACAAAAAAGACAAAUCUGCCACAAAGCUUGAGAGCAUCUUCGGAUGCAGAGGCGGCAGCCUUCGGUGACGAGAUAGCGCCAACGUUCUCAACUAUGACACGCAAAACGCGUGCUCCGUUGAAUGGAGUUUAUCAUG [G84A C87A], the “polymerase ribozyme fitness (log ratio)” value is at most -4.2. On to GGAUCUUCUCGAUCUAACAAAAAAGACAAAUCUGCCACAAAGCUUGAGAGCAUCUUCGGAUGCAGAGGCGGCAGCCUUCGGUGACGGGAUAGCGCCAACGUUCUCAACUGUGACACGCAAAACGCGUGCUCCGUUGAAUGGAGUUUAUCAUG [G84A C87G A110G], for which the “polymerase ribozyme fitness (log ratio)” value is at most -4.2. Next, GGAUCUUCUCGAUCUAACAAAAAAGACAAAUCUGCCACAAAGCUUGAGAGCAUCUUCGGAUGCAGAGGCGGCAGCCUUCGGUGACGCGAUGGCGCCAACGUUCUCAACUAUGACACGCAAACCGCGUGCUCCGUUGAAUGGAGUUUAUCAUG [G84A A91G A122C]: -3.61. Next, GGAUCUUCUCGAUCUAACAAAAAAGACAAAUCUGCCACAAAGCUUGAGAGCAUCUUCGGAUGCAGAGGCGGCAGCCUUCGGUGACGCGAUAGCGCCAACGUUCUCAACUAUGACACGCAAAACGCGUGCUCCGUUGAAUGGUGUUUAUCAUG [G84A A142U]: -0.702; GGAUCUUCUCGAUCUAACAAAAAAGACAAAUCUGCCACAAAGCUUGAGAGCAUCUUCGGAUGCAGAGGCGGCAGCCUUCGGUGACGCGAUAGCGCCAACGUUCUCAACUAUGACACGCAAGAUGCGUGCUUCGUUGAAUGGAGUUUAUCAUG [G84A A121G C123U C131U]: 0.94; GGAUCUUCUCGAUCUAACAAAAAAGACAAAUCUGCCACAAAGCUUGAGAGCAUCUUCGGAUGCAGAGGCGGCAGCCUUCGGUGACGCGAUAGCGCCAACGUUCUCAACUAUGACACGCAAAACGCGUGCUCCGUUGAAUGGAGUUUGUCAUG [G84A A147G]: -2.67. Next, GGAUCUUCUCGAUCUAACAAAAAAGACAAAUCUGCCACAAAGCUUGAGAGCAUCUUCGGAUGCAGAGGCGGCAGCCUUCGGUGACGCGAUAGCGCCAACGUUCUCAACUAUGACUCGCAAAACGCGUGCUCCGGUGAAUGGAGUUUAUCAUG [G84A A115U U134G]: -4.01; GGAUCUUCUCGAUCUAACAAAAAAGACAAAUCUGCCACAAAGCUUGAGAGCAUCUUCGGAUGCAGAGGCGGCAGCCUUCGGUGACGCGAUAGGGCCAACGUUCUCAACUAUGACACGCAAAACGAGUGCUCCUUUGAAUGGAGUUUAUCAUG [G84A C93G C125A G133U]: at most -4.2; GGAUCUUCUCGAUCUAACAAAAAAGACAAAUCUGCCACAAAGCUUGAGAGCAUCUUCGGAUGCAGAGGCGGCAGCCUUCGGUGACGCGAUAGCGCCAACGUUCUCAACUAUGACACGCAUAAAGCUUGCUCCGUUGAAUGGAGUUUAUCAUG [G84A A120U C123A G126U]: 0.597.

For GGAUCUUCUCGAUCUAACAAAAAAGACAAAUCUGCCACAAAGCUUGAGAGCAUCUUCGGAUGCAGAGGCGGCAGCCUUCGGUGACGCGAUAGCGCCAUCGUUCUCAACUAUGACACGCAAAACGCGUGCUCCGUUGAAUGGAGUUUAUCAUG [G84A A98U], the “polymerase ribozyme fitness (log ratio)” value is -0.469. The same measure for GGAUCUUCUCGAUCUAACAAAAAAGACAAAUCUGCCACAAAGCUUGAGAGCAUCUUCGGAUGCAGAGGCGGCAGCCUUCGGUUGCGCGAUAGCGCCAACGUUCUCAACUAUGACACGCAAAACGCGUGCUCCGUUGAAUGCAGUUUAUCAUG [G83U G141C]: -1.18. Next, GGAUCUUCUCGAUCUAACAAAAAAGACAAAUCUGCCACAAAGCUUGAGAGCAUCUUCGGAUGCAGAGGCGGCAGCCUUCGGUUGCGCGAUAGCGCCAACGUUCUCAACUAUGACACGCAAAACGCGUGCUCCGUAGAAUGGAGUUUAUCAUG [G83U U135A]: -1.05.
